This passage reports IC50 of neutralisation of pseudovirus bearing this HA results from article PMC4686829.

Test [1] has as its target HA glycoprotein of A/Hong Kong/156/1997 (H5N1, clade 0) (influenza A virus A/Hong Kong/156/1997 (H5N1)) (UniProt O56140).
In test [2] the target is HA glycoprotein of A/Indonesia/5/2005 (H5N1, clade 2.1.3.2) (influenza A virus A/Indonesia/5/2005 (H5N1)).
Test [3] concerns the target HA glycoprotein of A/Turkey/65596/2006 (H5N1, clade 2.2.1) (influenza A virus A/Turkey/65596/2006 (H5N1)).
Test [4] addresses HA glycoprotein of A/Thailand/(KAN-1)/2004 (H5N1, clade 1) (influenza A virus A/Thailand/(KAN-1)/2004 (H5N1)).
Test [5] concerns the target HA glycoprotein of A/goose/Guiyang/337/2006 (H5N1, clade 4) (influenza A virus A/goose/Guiyang/337/2006 (H5N1)).
For test [6], the target named is HA glycoprotein of A/common magpie/Hong Kong/5052/2007 (H5N1, clade 2.3.2.1) (influenza A virus A/common magpie/Hong Kong/5052/2007 (H5N1)).
Test [7] addresses HA glycoprotein of A/goose/Shantou/1621/2005 (H5N1, clade 9) (influenza A virus A/goose/Shantou/1621/2005 (H5N1)).
Test [8] deals with HA glycoprotein of A/silky chicken/Hong Kong/SF189/2001 (H5N1, clade 3) (influenza A virus A/silky chicken/Hong Kong/SF189/2001 (H5N1)).
Test [9] concerns the target HA glycoprotein of A/chicken/Korea/es/2003 (H5N1, clade 2.5) (influenza A virus A/chicken/Korea/es/2003 (H5N1)).
The target of test [10] is HA glycoprotein of A/duck/Guangxi/1378/2004 (H5N1, clade 5) (influenza A virus A/duck/Guangxi/1378/2004 (H5N1)).
In test [11] the target is HA glycoprotein of A/chicken/Guangxi/12/2004 (H5N1, clade 2.4) (influenza A virus A/chicken/Guangxi/12/2004 (H5N1)).
Test [12] deals with HA glycoprotein of A/blackbird/Hunan/1/2004 (H5N1, clade 6) (influenza A virus A/blackbird/Hunan/1/2004 (H5N1)).
In test [13] the target is HA glycoprotein of A/Shenzhen/406H/2006 (H5N1, clade 2.3.4) (influenza A virus A/Shenzhen/406H/2006 (H5N1)).
For test [14], the target named is HA glycoprotein of A/chicken/Henan/16/2004 (H5N1, clade 8) (influenza A virus A/chicken/Henan/16/2004 (H5N1)).
The target of test [15] is HA glycoprotein of A/Chicken/Vietnam /NCVD-16/08 (H5N1, clade 7.1) (influenza A virus A/Chicken/Vietnam/NCVD-16/08 (H5N1)).
Test [16] deals with HA glycoprotein of A/Chicken/Vietnam/NCVD-03/08 (H5N1, clade 7.1) (influenza A virus A/Chicken/Vietnam/NCVD-03/08 (H5N1)).

Regarding 65C6, full-length human IgG1 (antibody), the IC50 of neutralisation of pseudovirus bearing this HA in test [1] was determined as 0.005 µg/mL; in test [2], 0.004 µg/mL; in [3], 0.002 µg/mL; in test [4], 0.029 µg/mL; in test [5], 0.025 µg/mL; in [6], 0.034 µg/mL. Further, the IC50 of neutralisation of pseudovirus bearing this HA in test [7] stood at 0.007 µg/mL; in [8], 0.011 µg/mL; in test [9], 0.005 µg/mL; in [10] it was 0.005 µg/mL; in test [11], 0.005 µg/mL; in test [12], 0.007 µg/mL. Besides, the results for the IC50 of neutralisation of pseudovirus bearing this HA in test [13] and in [14] were 0.02 µg/mL and 0.014 µg/mL, respectively.

Consider “100F4, full-length human IgG1 (antibody)”, for which the IC50 of neutralisation of pseudovirus bearing this HA in test [1] was 0.05 µg/mL; in [2], 0.013 µg/mL; in test [3] it was 0.004 µg/mL; in test [4], 0.067 µg/mL; in test [5] it was 0.019 µg/mL; in test [6], 0.066 µg/mL. The IC50 of neutralisation of pseudovirus bearing this HA in [7] amounted to 0.011 µg/mL; in test [8] it was 0.022 µg/mL; in test [9] it was 0.016 µg/mL; in [10], 0.021 µg/mL; in [11], 0.015 µg/mL; in test [12], 0.033 µg/mL. For the same substance, the IC50 of neutralisation of pseudovirus bearing this HA in [13] was determined as 0.052 µg/mL; in test [14], 0.036 µg/mL.

For “AVFluIgG03, full-length human IgG1 (antibody)”, the IC50 of neutralisation of pseudovirus bearing this HA in test [1] was found to be 0.008 µg/mL; in test [2], 4.75 µg/mL; in [3], 1.86 µg/mL; in [15], 0.03 µg/mL; in [16] it was 0.069 µg/mL; in test [7], 0.018 µg/mL. Besides, the IC50 of neutralisation of pseudovirus bearing this HA in test [8] was found to be 0.069 µg/mL; in test [10], 0.009 µg/mL; in test [12], 0.004 µg/mL; in [13], 0.002 µg/mL.
